Assays:
[1] = target: Rotavirus strain SA11 nonstructural protein 2 with the K294E change, untagged (NSP2 K294E) (rotavirus strain SA11); test: crystal structure; sitting drop vapor diffusion, 20 °C; protein ~8 mg/mL in 10 mM Tris-HCl pH 7.2, 50 mM NaCl, 1 mM DTT; reservoir 100 mM Tris-HCl pH 7.5, 0.2 M magnesium acetate, 12% PEG6K; space group I422, 1 molecule per asymmetric unit, octamer with D4 symmetry
[2] = target: Rotavirus strain SA11 nonstructural protein 2, wildtype, untagged (NSP2WT) (rotavirus strain SA11); test: as above

Substance “Rotavirus strain SA11 nonstructural protein 2 with the K294E change, untagged (NSP2 K294E) (natural protein)” has a stoichiometry N [1] of 8.

In the case of “Rotavirus strain SA11 nonstructural protein 2, wildtype, untagged (NSP2WT) (natural protein)”, the stoichiometry N [2] is reported as 8.
